The target of one assay is Aβ(1-40) monomer (human). The experiment in a line: dot blot, 10 pmol antigen on nitrocellulose, 0.2 µg/ml antibody, densitometry.
For assay [1], the target named is Aβ1-42 monomer (dot blot) (human). The description is as above.
The target of assay [2] is endogenous Aβ(1-42) in human CSF (human). Kind of assay: IP from CSF of AD patients (n=2) with antibody-Sepharose, Aβ42 sandwich ELISA of eluate.
The target is the same in assay [3]. The experiment in a line: IP from CSF of MCI patients (n=4) with antibody-Sepharose, Aβ42 sandwich ELISA of eluate.
Assay [4] has the same target. Kind of assay: IP from CSF of AD patients (n=2), ratio of recovered Aβ42 to Aβ40.
Assay [5] has the same target. Kind of assay: IP from CSF of MCI patients (n=4), ratio of recovered Aβ42 to Aβ40.
The target of assay [6] is endogenous Aβ(1-40) in human CSF (human). The experiment in a line: IP from CSF of MCI patients (n=4) with antibody-Sepharose, Aβ40 sandwich ELISA of eluate. Background: In an ELISA, binding on a coated surface is turned into a signal by an enzyme label.
Assay [7] has as its target endogenous Aβ(1-42) in human CSF (human). The experiment in a line: IP from AD patient CSF, urea-PAGE Western blot, share of Aβ42 in recovered Aβ40+42. A general note: Immunoblotting shows a protein as a band on a membrane.
For assay [8] the target is unchanged. Kind of assay: IP from AD patient CSF with antibody on anti-mouse IgG Dynabeads, 8 M urea-PAGE and Western blot (82E1).
In assay [9] the target is endogenous Aβ(1-40) in human CSF (human). The description is as above.
Assay [10] has the same target. The experiment in a line: IP from CSF of AD patients (n=2) with antibody-Sepharose, Aβ40 sandwich ELISA of eluate.
Another assay has as its target Aβ(1-42) fibrils (human) (UniProt P05067). The experiment in a line: co-sedimentation with Aβ(1-42) fibrils, SDS-PAGE, densitometry of heavy chain in pellet and supernatant.

Experimental findings from patent US8497072 are described below.

Chain of endogenous Aβ(1-42) in human CSF (human) (peptide, as listed by the source): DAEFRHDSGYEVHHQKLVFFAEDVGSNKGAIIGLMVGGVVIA
Chain of endogenous Aβ(1-40) in human CSF (human) (peptide, as listed by the source): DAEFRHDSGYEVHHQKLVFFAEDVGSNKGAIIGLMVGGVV

“mMAb 4G8 (Signet Inc. Cat# 9220) (antibody)”: the figures for the Reflective Density (RD) [10 pmol] (with Aβ(1-40) monomer (human); in [1]) were 0.7 RD and 3.1 RD, respectively.
Regarding “mMAb 6E10 (Signet Inc. Cat.# 9320) (antibody)”, the Aβ(1-42) recovered after immunoprecipitation turned out to be 1450 in assay [2] and 2040 in assay [3]. In addition, the Aβ42/40 in assay [4] was found to be 20.6%; in assay [5], 17.4%. The Aβ(1-40) recovered after immunoprecipitation turned out to be 8280 in assay [6] and 5610 in [10]. In assay [7], the Ratio Aβ42/Aβ40+42 × 100% came out at 4.4%. The substance further registered an Aβ42 urea-PAGE after immunoprecipitation in [8] of 202 pg/mL. In assay [9], this substance displayed an Aβ40 urea-PAGE after immunoprecipitation of 4390 pg/mL. The same substance came in with a Fibril bound Ab fraction in the assay with Aβ(1-42) fibrils (human) of 98%.
